The values below come from PMC9342900, “Cryo-EM structures of the Synechocystis sp. PCC 6803 cytochrome b6f complex with and without the regulatory PetP subunit” (Biochemical Journal, 2022).

T1: Synechocystis cytb6f-PetP complex (Rieske ISP subunit) (Synechocystis sp. PCC 6803, UniProt P26290)
T1 construct: gene petC1; same complex as P1; with Cytochrome b6; Cytochrome b6-f complex subunit 4; Cytochrome f; Cytochrome b6-f complex subunit 5; Cytochrome b6-f complex subunit 6; Cytochrome b6-f complex subunit 7; Cytochrome b6-f complex subunit 8; Cytochrome b6f regulatory subunit PetP
T1 sequence (P26290 2-180): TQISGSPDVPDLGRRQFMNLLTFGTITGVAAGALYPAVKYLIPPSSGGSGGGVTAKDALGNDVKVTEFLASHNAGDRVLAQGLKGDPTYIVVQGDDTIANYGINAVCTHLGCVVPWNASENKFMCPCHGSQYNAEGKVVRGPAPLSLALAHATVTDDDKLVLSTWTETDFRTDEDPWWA

T2: cytochrome b6 subunit of the Synechocystis cytb6f complex (Synechocystis sp. PCC 6803, UniProt Q57038 1-222)
T2 construct: cytochrome b6, Synechocystis sp; PCC 6803, endogenous subunit of cytb6f; Stood in the structure as a subunit of m2; source: Synechocystis PetA-StrepII strain, purified as part of cytb6f (StrepTrap HP, SEC)
T2 sequence: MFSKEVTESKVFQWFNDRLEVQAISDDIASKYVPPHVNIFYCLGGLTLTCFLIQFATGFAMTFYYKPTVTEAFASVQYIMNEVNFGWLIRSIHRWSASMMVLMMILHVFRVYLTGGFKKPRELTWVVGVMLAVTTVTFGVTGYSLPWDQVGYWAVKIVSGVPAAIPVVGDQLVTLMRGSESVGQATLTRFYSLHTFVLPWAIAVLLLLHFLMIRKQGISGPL

T3: subunit IV of the Synechocystis cytb6f complex (Synechocystis sp. PCC 6803, UniProt P27589 1-160)
T3 construct: subunit IV, Synechocystis sp; PCC 6803, endogenous subunit of cytb6f; Stood in the structure as a subunit of m2; also called subIV; source: Synechocystis PetA-StrepII strain, purified as part of cytb6f (StrepTrap HP, SEC)
T3 sequence: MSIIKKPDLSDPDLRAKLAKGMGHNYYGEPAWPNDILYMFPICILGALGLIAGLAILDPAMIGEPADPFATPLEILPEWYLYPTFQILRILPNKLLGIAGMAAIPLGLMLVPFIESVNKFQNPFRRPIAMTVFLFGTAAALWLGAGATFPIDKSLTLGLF

B1: N-terminally hexa-Histidine (His)-tagged PetP (natural protein, Synechocystis sp. PCC 6803)
chain: MTIEIGQKVKVYRLRDRVSPDVVGKLGKVGVVKDFKMTDGSGIGAVVSFDDRTATWFFEDELKAI
notes: PetP, Synechocystis sp; PCC 6803, gene petP (ssr2998), codon optimized for E. coli, cloned into the NdeI and XhoI sites of pET28a(+); About 10 kDa protein; The vector pET28a(+) adds further residues between the His tag and the NdeI site; also called His-PetP; His6-tagged PetP; source: E. coli BL21(DE3), purified (HisTrap IMAC, PD-10 desalting); not shown: His6, N-terminal, kept
B2: PetG subunit of the Synechocystis cytb6f complex (natural protein, Synechocystis sp. PCC 6803)
chain: MIEPLLLGIVLGLIPVTLAGLFVAAYLQYKRGNQFNLD
notes: PetG, Synechocystis sp; PCC 6803, endogenous subunit of cytb6f; Stood in the structure as a subunit of m2; source: Synechocystis PetA-StrepII strain, purified as part of cytb6f (StrepTrap HP, SEC)

Assay [1] addresses T4, Synechocystis cytb6f complex (carotenoid site) (Synechocystis sp. PCC 6803, UniProt P0DXY4+P74149+P74810+Q57038).
T4 construct: gene petB; same complex as P1; with Cytochrome b6-f complex subunit 4; Cytochrome f; Cytochrome b6-f complex iron-sulfur subunit; Cytochrome b6-f complex subunit 8; Cytochrome b6f regulatory subunit PetP
Kind of assay: cryo-EM structure; HPLC of extracted pigments. It counts as binding. The conditions noted are these: native co-purified; 9-cis configuration suggested.

The target in assay [2] is T1, Synechocystis cytb6f-PetP complex (Rieske ISP subunit). Kind of assay: cryo-EM structure, […] Å. It counts as binding. The conditions noted are these: native co-purified.
The target in assay [3] is T5, Synechocystis cytb6f-PetP complex (cytochrome b6 / subunit IV core) (Synechocystis sp. PCC 6803, UniProt P27589+Q57038).
T5 construct: gene petB; native dimeric complex from Synechocystis thylakoids in GDN, cytochrome f with C-terminal Ser-Ala-Strep-tag II; reconstituted with His6-PetP from E. coli; with Cytochrome f; Cytochrome b6-f complex iron-sulfur subunit; Cytochrome b6-f complex subunit 5; Cytochrome b6-f complex subunit 6; Cytochrome b6-f complex subunit 7; Cytochrome b6-f complex subunit 8; Cytochrome b6f regulatory subunit PetP
Description: cryo-EM structure, […] Å. The conditions noted are these: Qn site, one PQ per monomer near heme cn; native co-purified; with PetP. It counts as binding.

Assay [4] has as its target Synechocystis sp. PCC 6803 cytochrome b6f complex with C-terminally StrepII-tagged PetA, purified dimer (Synechocystis sp. PCC 6803) (UniProt P26287). Kind of assay: native gel or EMSA; BN-PAGE on NativePAGE 3-12% Bis-Tris gels, Coomassie stain; purified cytb6f and cytb6f-PetP; dimer against monomer of the complex.
Assay [5] shares this target. Description: cryo-EM structure; cytb6f without PetP, 17 uM, in GDN; 3.15 A.
The target is the same in assay [6]. Description: cryo-EM structure; reconstituted cytb6f-PetP complex, 20 uM, in buffer D with GDN; 2.80 A.
The target in assay [7] is T2, cytochrome b6 subunit of the …. The assay is described as above. The conditions noted are these: both partners purified.
Assay [8] concerns the target T3, subunit IV of the Synechocystis cytb6f …. Described as above. The conditions noted are these: both partners purified.
The target in assay [9] is B1. The description is as above. The conditions noted are these: both partners purified.

`CC1=C(/C=C/C(C)=C/C=C/C(C)=C/C=C/C=C(C)/C=C/C=C(C)/C=C/C2=C(C)C(=O)CCC2(C)C)C(C)(C)CCC1` [echinenone]: the “cryo-EM structure; HPLC of extracted pigments” value in [1] is given as “clear density for the ketone group on the end ring of echinenone”. For the molecule `[S]1[Fe][S][Fe]1` [2Fe-2S cluster], the “cryo-EM structure, 2.80 Å” value in assay [2] is “the 2Fe-2S cluster (orange Fe and yellow S)”. Take `CC(C)=CCC/C(C)=C/CC/C(C)=C/CC/C(C)=C/CC/C(C)=C/CC/C(C)=C/CC/C(C)=C/CC/C(C)=C/CC/C(C)=C/CC1=CC(=O)C(C)=C(C)C1=O` [PQ, plastoquinone]: in [3], the “cryo-EM structure, 2.80 Å” value is reported as “resolves two native PQ molecules, one bound at each Qn site within the dimer”. Regarding “Synechocystis sp. PCC 6803 cytochrome b6f complex with C-terminally StrepII-tagged PetA, purified dimer (from UniProt P26287 45-328; Q57038 1-222; P27589 1-160; P74149 1-38; P74810 1-36; P72717 1-29)”, the stoichiometry N in [4], in assay [5] and in [6] was 2 throughout. Consider B1, for which the binding result in assay [7] and in assay [8] was “binds” throughout. As for B2, the binding result in assay [9] is on record as “binds”.
